Data taken from the supplement of paper PMC5998384.

Tests used:
HeLa Kyoto [1] = test: thermal stability score vs G1/S (z-score of summed log2 fold changes over temperatures); higher = more thermally stable than in G1/S
HeLa Kyoto [2] = test: solubility change mitosis vs G1/S (difference of NP-40 vs SDS log2 ratios) (log2 ratio difference); higher = more soluble in mitosis
HeLa Kyoto [3] = test: solubility in G1/S (NP-40 vs SDS abundance) (log2 ratio); higher = more soluble; conditions: cell cycle stage: G1/S
HeLa Kyoto [4] = test: melting temperature (median over replicates), in situ; higher = more thermally stable
[5] = cell cycle stage: early G1 (4.5 h after nocodazole release)
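Throughout, for melting temperature (median over replicates), in situ: HeLa Kyoto cells synchronized by double thymidine or nocodazole block, proteins quantified by TMT10plex mass spectrometry, three independent biological replicates.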
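Throughout, for solubility change mitosis vs G1/S (difference of NP-40 vs SDS log2 ratios): synchronized HeLa Kyoto cells (double thymidine block for G1/S, nocodazole release for mitosis), protein amounts in NP-40 versus SDS lysates quantified by mass spectrometry, three biological replicates.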
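Throughout, for solubility in G1/S (NP-40 vs SDS abundance): HeLa Kyoto cells arrested at G1/S by double thymidine block, proteins quantified by TMT10plex mass spectrometry in mild NP-40 versus SDS extracts, three biological replicates.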
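Throughout, for thermal stability score vs G1/S (z-score of summed log2 fold changes over temperatures): synchronized HeLa Kyoto cells, proteins quantified by TMT10plex mass spectrometry, three biological replicates, mitosis taken 0.5 h after nocodazole release, G1/S directly after double thymidine block.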

Sequence	thermal stability score (HeLa Kyoto [1]; [5])	thermal stability score (HeLa Kyoto [1]; cell cycle stage: mitosis)	solubility change mitosis (log2) (HeLa Kyoto [2])	solubility in G1/S (log2) (HeLa Kyoto [3])	melting temperature (HeLa Kyoto [4]; cell cycle stage: G1/S) [°C]	melting temperature (HeLa Kyoto [4]; cell cycle stage: mitosis) [°C]
MGTRDDEYDYLFKVVLIGDSGVGKSNLLSRFTRNEFNLESKSTIGVEFATRSIQVDGKTIKAQIWDTAGQERYRAITSAYYRGAVGALLVYDIAKHLTYENVERWLKELRDHADSNIVIMLVGNKSDLRHLRAVPTDEARAFAEKNNLSFIETSALDSTNVEEAFKNILTEIYRIVSQKQIADRAAHDESPGNNVVDISVPPTTDGQKPNKLQCCQNL [RAB11B]	0.344	-0.699	-0.0727	0.136	57.1	57.5
MGVEGCTKCIKYLLFVFNFVFWLAGGVILGVALWLRHDPQTTNLLYLELGDKPAPNTFYVGIYILIAVGAVMMFVGFLGCYGAIQESQCLLGTFFTCLVILFACEVAAGIWGFVNKDQIAKDVKQFYDQALQQAVVDDDANNAKAVVKTFHETLDCCGSSTLTALTTSVLKNNLCPSGSNIISNLFKEDCHQKIDDLFSGKLYLIGIAAIVVAVIMIFEMILSMVLCCGIRNSSVY [CD81]	0.287	-0.69	-0.0908	0.0932	56.1	
MGVWLNKDDYIRDLKRIILCFLIVYMAILVGTDQDFYSLLGVSKTASSREIRQAFKKLALKLHPDKNPNNPNAHGDFLKINRAYEVLKDEDLRKKYDKYGEKGLEDNQGGQYESWNYYRYDFGIYDDDPEIITLERREFDAAVNSGELWFVNFYSPGCSHCHDLAPTWRDFAKEVDGLLRIGAVNCGDDRMLCRMKGVNSYPSLFIFRSGMAPVKYHGDRSKESLVSFAMQHVRSTVTELWTGNFVNSIQTAFAAGIGWLITFCSKGGDCLTSQTRLRLSGMLDGLVNVGWMDCATQDNLCKSLDITTSTTAYFPPGATLNNKEKNSILFLNSLDAKEIYLEVIHNLPDFELLSANTLEDRLAHHRWLLFFHFGKNENSNDPELKKLKTLLKNDHIQVGRFDCSSAPDICSNLYVFQPSLAVFKGQGTKEYEIHHGKKILYDILAFAKESVNSHVTTLGPQNFPANDKEPWLVDFFAPWCPPCRALLPELRRASNLLYGQLKFGTLDCTVHEGLCNMYNIQAYPTTVVFNQSNIHEYEGHHSAEQILEFIEDLMNPSVVSLTPTTFNELVTQRKHNEVWMVDFYSPWCHPCQVLMPEWKRMARTLTGLINVGSIDCQQYHSFCAQENVQRYPEIRFFPPKSNKAYHYHSYNGWNRDAYSLRIWGLGFLPQVSTDLTPQTFSEKVLQGKNHWVIDFYAPWCGPCQNFAPEFELLARMIKGKVKAGKVDCQAYAQTCQKAGIRAYPTVKFYFYERAKRNFQEEQINTRDAKAIAALISEKLETLRNQGKRNKDEL [DNAJC10]	3.17	4.65	-0.125	-0.000819	54.7	55.4
MHFSIPETESRSGDSGGSAYVAYNIHVNGVLHCRVRYSQLLGLHEQLRKEYGANVLPAFPPKKLFSLTPAEVEQRREQLEKYMQAVRQDPLLGSSETFNSFLRRAQQETQQVPTEEVSLEVLLSNGQKVLVNVLTSDQTEDVLEAVAAKLDLPDDLIGYFSLFLVREKEDGAFSFVRKLQEFELPYVSVTSLRSQEYKIVLRKSYWDSAYDDDVMENRVGLNLLYAQTVSDIERGWILVTKEQHRQLKSLQEKVSKKEFLRLAQTLRHYGYLRFDACVADFPEKDCPVVVSAGNSELSLQLRLPGQQLREGSFRVTRMRCWRVTSSVPLPSGSTSSPGRGRGEVRLELAFEYLMSKDRLQWVTITSPQAIMMSICLQSMVDELMVKKSGGSIRKMLRRRVGGTLRRSDSQQAVKSPPLLESPDATRESMVKLSSKLSAVSLRGIGSPSTDASASDVHGNFAFEGIGDEDL [SNX17]	1.32	0.59	-0.263	0.103	50.9	51.4
MHKAGLLGLCARAWNSVRMASSGMTRRDPLANKVALVTASTDGIGFAIARRLAQDGAHVVVSSRKQQNVDQAVATLQGEGLSVTGTVCHVGKAEDRERLVATAVKLHGGIDILVSNAAVNPFFGSIMDVTEEVWDKTLDINVKAPALMTKAVVPEMEKRGGGSVVIVSSIAAFSPSPGFSPYNVSKTALLGLTKTLAIELAPRNIRVNCLAPGLIKTSFSRMLWMDKEKEESMKETLRIRRLGEPEDCAGIVSFLCSEDASYITGETVVVGGGTPSRL [DHRS4]	-0.643	-0.663	0.0427	-0.159	53.4	53.5
MHPLQCVLQVQRSLGWGPLASVSWLSLRMCRAHSSLSSTMCPSPERQEDGARKDFSSRLAAGPTFQHFLKSASAPQEKLSSEVEDPPPYLMMDELLGRQRKVYLETYGCQMNVNDTEIAWSILQKSGYLRTSNLQEADVILLVTCSIREKAEQTIWNRLHQLKALKTRRPRSRVPLRIGILGCMAERLKEEILNREKMVDILAGPDAYRDLPRLLAVAESGQQAANVLLSLDETYADVMPVQTSASATSAFVSIMRGCDNMCSYCIVPFTRGRERSRPIASILEEVKKLSEQVFLPPRPPKVLGLQGLKEVTLLGQNVNSFRDNSEVQFNSAVPTNLSRGFTTNYKTKQGGLRFAHLLDQVSRVDPEMRIRFTSPHPKDFPDEVLQLIHERDNICKQIHLPAQSGSSRVLEAMRRGYSREAYVELVHHIRESIPGVSLSSDFIAGFCGETEEDHVQTVSLLREVQYNMGFLFAYSMRQKTRAYHRLKDDVPEEVKLRRLEELITIFREEATKANQTSVGCTQLVLVEGLSKRSATDLCGRNDGNLKVIFPDAEMEDVNNPGLRVRAQPGDYVLVKITSASSQTLRGHVLCRTTLRDSSAYC [CDK5RAP1]	0.115	0.734	-0.0868	-0.0387	50.6	51
MHRDSCPLDCKVYVGNLGNNGNKTELERAFGYYGPLRSVWVARNPPGFAFVEFEDPRDAADAVRELDGRTLCGCRVRVELSNGEKRSRNRGPPPSWGRRPRDDYRRRSPPPRRRSPRRRSFSRSRSRSLSRDRRRERSLSRERNHKPSRSFSRSRSRSRSNERK [SRSF3]	-0.84	-4.46	0.503	-0.0567	55.3	54.2
MHRRGVGAGAIAKKKLAEAKYKERGTVLAEDQLAQMSKQLDMFKTNLEEFASKHKQEIRKNPEFRVQFQDMCATIGVDPLASGKGFWSEMLGVGDFYYELGVQIIEVCLALKHRNGGLITLEELHQQVLKGRGKFAQDVSQDDLIRAIKKLKALGTGFGIIPVGGTYLIQSVPAELNMDHTVVLQLAEKNGYVTVSEIKASLKWETERARQVLEHLLKEGLAWLDLQAPGEAHYWLPALFTDLYSQEITAEEAREALP [SNF8]	-0.788	-0.397	0.0161	0.377	52.9	51.5
MIAAPEIPTDFNLLQESETHFSSDTDFEDIEGKNQKQGKGKTCKKGKKGPAEKGKGGNGGGKPPSGPNRMNGHHQQNGVENMMLFEVVKMGKSAMQSVVDDWIESYKHDRDIALLDLINFFIQCSGCKGVVTAEMFRHMQNSEIIRKMTEEFDEDSGDYPLTMAGPQWKKFKSSFCEFIGVLVRQCQYSIIYDEYMMDTVISLLTGLSDSQVRAFRHTSTLAAMKLMTALVNVALNLSINMDNTQRQYEAERNKMIGKRANERLELLLQKRKELQENQDEIENMMNAIFKGVFVHRYRDAIAEIRAICIEEIGIWMKMYSDAFLNDSYLKYVGWTMHDKQGEVRLKCLTALQGLYYNKELNSKLELFTSRFKDRIVSMTLDKEYDVAVQAIKLLTLVLQSSEEVLTAEDCENVYHLVYSAHRPVAVAAGEFLYKKLFSRRDPEEDGMMKRRGRQGPNANLVKTLVFFFLESELHEHAAYLVDSMWDCATELLKDWECMNSLLLEEPLSGEEALTDRQESALIEIMLCTIRQAAECHPPVGRGTGKRVLTAKEKKTQLDDRTKITELFAVALPQLLAKYSVDAEKVTNLLQLPQYFDLEIYTTGRLEKHLDALLRQIRNIVEKHTDTDVLEACSKTYHALCNEEFTIFNRVDISRSQLIDELADKFNRLLEDFLQEGEEPDEDDAYQVLSTLKRITAFHNAHDLSKWDLFACNYKLLKTGIENGDMPEQIVIHALQCTHYVILWQLAKITESSSTKEDLLRLKKQMRVFCQICQHYLTNVNTTVKEQAFTILCDILMIFSHQIMSGGRDMLEPLVYTPDSSLQSELLSFILDHVFIEQDDDNNSADGQQEDEASKIEALHKRRNLLAAFCKLIVYTVVEMNTAADIFKQYMKYYNDYGDIIKETMSKTRQIDKIQCAKTLILSLQQLFNEMIQENGYNFDRSSSTFSGIKELARRFALTFGLDQLKTREAIAMLHKDGIEFAFKEPNPQGESHPPLNLAFLDILSEFSSKLLRQDKRTVYVYLEKFMTFQMSLRREDVWLPLMSYRNSLLAGGDDDTMSVISGISSRGSTVRSKKSKPSTGKRKVVEGMQLSLTEESSSSDSMWLSREQTLHTPVMMQTPQLTSTIMREPKRLRPEDSFMSVYPMQTEHHQTPLDYNRRGTSLMEDDEEPIVEDVMMSSEGRIEDLNEGMDFDTMDIDLPPSKNRRERTELKPDFFDPASIMDESVLGVSMF [STAG2]	-0.506	-0.478	-0.0337	-0.185	52.9	51.6
MIAHKQKKTKKKRAWASGQLSTDITTSEMGLKSLSSNSIFDPDYIKELVNDIRKFSHMLLYLKEAIFSDCFKEVIHIRLEELLRVLKSIMNKHQNLNSVDLQNAAEMLTAKVKAVNFTEVNEENKNDLFQEVFSSIETLAFTFGNILTNFLMGDVGNDSLLRLPVSRETKSFENVSVESVDSSSEKGNFSPLELDNVLLKNTDSIELALSYAKTWSKYTKNIVSWVEKKLNLELESTRNMVKLAEATRTNIGIQEFMPLQSLFTNALLNDIESSHLLQQTIAALQANKFVQPLLGRKNEMEKQRKEIKELWKQEQNKMLEAENALKKAKLLCMQRQDEYEKAKSSMFRAEEEHLSSSGGLAKNLNKQLEKKRRLEEEALQKVEEANELYKVCVTNVEERRNDLENTKREILAQLRTLVFQCDLTLKAVTVNLFHMQHLQAASLADSLQSLCDSAKLYDPGQEYSEFVKATNSTEEEKVDGNVNKHLNSSQPSGFGPANSLEDVVRLPDSSNKIEEDRCSNSADITGPSFIRSWTFGMFSDSESTGGSSESRSLDSESISPGDFHRKLPRTPSSGTMSSADDLDEREPPSPSETGPNSLGTFKKTLMSKAALTHKFRKLRSPTKCRDCEGIVVFQGVECEECLLVCHRKCLENLVIICGHQKLPGKIHLFGAEFTQVAKKEPDGIPFILKICASEIENRALCLQGIYRVCGNKIKTEKLCQALENGMHLVDISEFSSHDICDVLKLYLRQLPEPFILFRLYKEFIDLAKEIQHVNEEQETKKNSLEDKKWPNMCIEINRILLKSKDLLRQLPASNFNSLHFLIVHLKRVVDHAEENKMNSKNLGVIFGPSLIRPRPTTAPITISSLAEYSNQARLVEFLITYSQKIFDGSLQPQDVMCSIGVVDQGCFPKPLLSPEERDIERSMKSLFFSSKEDIHTSESESKIFERATSFEESERKQNALGKCDACLSDKAQLLLDQEAESASQKIEDGKTPKPLSLKSDRSTNNVERHTPRTKIRPVSLPVDRLLLASPPNERNGRNMGNVNLDKFCKNPAFEGVNRKDAATTVCSKFNGFDQQTLQKIQDKQYEQNSLTAKTTMIMPSALQEKGVTTSLQISGDHSINATQPSKPYAEPVRSVREASERRSSDSYPLAPVRAPRTLQPQHWTTFYKPHAPIISIRGNEEKPASPSAAVPPGTDHDPHGLVVKSMPDPDKASACPGQATGQPKEDSEELGLPDVNPMCQRPRLKRMQQFEDLEGEIPQFV [ARHGAP29]	1	1.36	-0.0634	-0.185	50.5	51.1
